From US6368811 (VLAAMS INTERUNIVERSITAIR INSTITUUT VOOR BIOTECHNOLOGIE, dated 2002) come the findings set out here.

The series “ligand blot” deals with the molecule itself. Kind of series: ligand blot.
The target in series [1] is T1, GST (glutathione S-transferase) itself (UniProt P08515 1-218 = GST).
T1 construct: Control; also called isolated GST-moiety
Kind of series: ligand blot.

Series [2] deals with T2, syndecan-3 full length cytoplasmic domain fused to the Gal4 DNA-binding domain (UniProt P04386 1-147; O75056 410-442).
T2 construct: also called Gal4-syndecan bait
Kind of series: yeast two-hybrid. The text has this:
(§1) The yeast two-hybrid system (Chien et al, 1991; P.N.A.S., 88, 9578–9582) was used to identify the domains of sycl and the residues in the syndecan cytoplasmic domains that are responsible for the syndecan-sycl interaction. Different parts of the original clone (3p11) and of the sycl cDNA were subcloned in the pGAD10 vector (Clontech Laboratories), to code for fusions between the activating domain of Gal4 (Gal4 AD) and various full length, truncated, deleted, point-mutated, or epitope-tagged versions of sycl. […] But a requirement for paired PDZ domains (for instance two PDZ1 or two PDZ2 domains) has also been observed for the interactions of the GRIP adaptor protein with AMPA receptors 12 and the interaction of hDlg with the cytoplasmic domain of the Shaker-type K+channel.
(§2) Baits, comprising at least a cytoplasmic domain FYA (corresponds to Phe-Tyr-Ala) as C-terminal sequence of syndecans fused in frame to the DNA-binding domain of Gal4, were constructed by PCR, using the BamHI/SalI restriction sites of the pAS2 vector (Clontech Laboratories), and used to screen a human liver cDNA library (Clontech Laboratories) cloned in pGAD10. The pAS2 plasmids and library were cotransfected in CG1945 yeast cells, and positive clones were selected on triple minus plates (Leu-, Trp-, His-) and assayed for b-galactosidase activity. Positive cDNA clones were cotransfected with all four bait vectors and with the original pAS2 vector cells to confirm the interaction.

For series [3], the target named is T3, syndecan-2 full length cytoplasmic domain fused to the Gal4 DNA-binding domain (UniProt P04386 1-147; P34741 170-201).
T3 construct: also called Gal4-syndecan bait
Kind of series: yeast two-hybrid.
Text: as §1, §2

T1 sequence (P08515 whole entry): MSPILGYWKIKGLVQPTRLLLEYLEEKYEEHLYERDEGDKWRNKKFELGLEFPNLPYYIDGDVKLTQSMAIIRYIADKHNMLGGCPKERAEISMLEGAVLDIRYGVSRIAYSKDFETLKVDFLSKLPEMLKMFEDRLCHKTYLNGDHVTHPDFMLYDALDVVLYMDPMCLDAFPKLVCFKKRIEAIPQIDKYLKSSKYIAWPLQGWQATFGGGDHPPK

B1: GST-sycl M92 (sycl sequence starting at M92) fusion protein (other)
chain: MVAPVTGNDVGIRRAEIKQGIREVILCKDQDGKIGLRLKSIDNGIFVQLVQANSPASLVGLRFGDQVLQINGENCAGWSSDKAHKVLKQAFGEKITMTIRDRPFERTITMHKDSTGHVGFIFKNGKITSIVKDSSAARNGLLTEHNICEINGQNVIGLKDSQIADILSTSGTVVTITIMPAFIFEHIIKRMAPSIMKSLMDHTIPEV
notes: Expressed in E. coli BL21; not shown: glutathione S-transferase (GST) as encoded by vector pGEX-5X-2
Take B1: the binding result (in the series “ligand blot”; in series [1]) was “no binding” in each case.

B2: N-terminal domain of sycl alone fused to Gal4 activating domain (other, not shown: large carriers)
chain: MSLYPSLEDLKVDKVIQAQTAFSANPANPAILSEASAPIPHDGNLYPRLYPELSQYMGLSLNEEEIRASVAVVSGAPLQGQLVARPSSINYMVAPVTGNDVGIRRAEIKQGIR
notes: also called The N-terminal domain alone
Take B2: the binding result in series [2] and in series [3] was “no binding” each time.

B3: second PDZ domain of sycl alone fused to Gal4 activating domain (other, not shown: large carriers)
chain: PFERTITMHKDSTGHVGFIFKNGKITSIVKDSSAARNGLLTEHNICEINGQNVIGLKDSQIADILSTSGTVVTITIMPAFI
notes: also called PDZ-2 alone; either of the two PDZ domains alone
As for B3, the binding result in series [2] and in series [3] was “no binding” in each case.

B4: first PDZ domain of sycl alone fused to Gal4 activating domain (other, not shown: large carriers)
chain: VGIRRAEIKQGIREVILCKDQDGKIGLRLKSIDNGIFVQLVQANSPASLVGLRFGDQVLQINGENCAGWSSDKAHKVLKQAFGEKITMTIRDR
notes: also called PDZ-1 alone; either of the two PDZ domains alone
Turning to B4, the binding result in series [2] and in series [3] was “no binding” in each case.
